Laboratory results reported in patent US20220040297A1 (Chugai, published 2022).
Numbering of substitutions follows the chain as printed. Blank lines part the entries; values can stand above or below the binder they belong to.

Target: CD3ε homodimer protein (human, UniProt P07766 23-126, limits assumed)
Experiment: SPR, immobilized CD3ε homodimer;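 also: biacore T200 surface plasmon resonance at 25 °C, antibody variants flowed as analytes over amine-coupled CD3ε homodimer on a CM4 chip, variant binding amount divided by that of GLS3000 antibody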

Chain of CD3ε homodimer protein (P07766 23-126 limits assumed): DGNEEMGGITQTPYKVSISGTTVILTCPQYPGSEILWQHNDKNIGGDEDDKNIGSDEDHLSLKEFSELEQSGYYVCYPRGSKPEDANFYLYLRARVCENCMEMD

ratio of amounts bound (vs GLS3000): 1.03
B1: GLS3000 S27eA (antibody, name in Kabat numbering, V domains shown)
VH: QVQLVESGGGVVQPGRSLRLSCAASGFTFSNAWMHWVRQAPGKGLEWVAQIKAKSNNYATYYAESVKGRFTISRDDSKNSLYLQMNSLKTEDTAVYYCRYVHYGAYYGVDAWGQGTTVTVSS
VL: DIVMTQSPLSLPVTPGEPASISCRSSQSLVHANRNTYLHWYQQKPGQAPRLLIYKVSNRFSGVPDRFSGSGSGTDFTLKISRVEAEDVGVYYCGQGTQVPYTFGQGTKLEIK
notes: one-arm format as m2

ratio of amounts bound (vs GLS3000): 0.82
B2: GLS3000 F55I (antibody, name in Kabat numbering, V domains shown)
VH: B1 VH
VL: B1 VL with A32S, F60I
notes: one-arm format as m2

ratio of amounts bound (vs GLS3000): 0.41
B3: GLS3000 F55T (antibody, name in Kabat numbering, V domains shown)
VH: B1 VH
VL: B1 VL with A32S, F60T
notes: one-arm format as m2

ratio of amounts bound (vs GLS3000): 0.23
B4: GLS3000 H27dE (antibody, name in Kabat numbering, V domains shown)
VH: B1 VH
VL: B1 VL with H31E, A32S
notes: one-arm format as m2

ratio of amounts bound (vs GLS3000): 0.71
B5: GLS3000 F55V (antibody, name in Kabat numbering, V domains shown)
VH: B1 VH
VL: B1 VL with A32S, F60V
notes: one-arm format as m2

ratio of amounts bound (vs GLS3000): 0.26
B6: GLS3000 G89E (antibody, name in Kabat numbering, V domains shown)
VH: B1 VH
VL: B1 VL with A32S, G94E
notes: one-arm format as m2

ratio of amounts bound (vs GLS3000): 0.48
B7: GLS3000 H27dA (antibody, name in Kabat numbering, V domains shown)
VH: B1 VH
VL: B1 VL with H31A, A32S
notes: one-arm format as m2

ratio of amounts bound (vs GLS3000): 0.65
B8: GLS3000 F55D (antibody, name in Kabat numbering, V domains shown)
VH: B1 VH
VL: B1 VL with A32S, F60D
notes: one-arm format as m2

ratio of amounts bound (vs GLS3000): 0.94
B9: GLS3000 F55H (antibody, name in Kabat numbering, V domains shown)
VH: B1 VH
VL: B1 VL with A32S, F60H
notes: one-arm format as m2

ratio of amounts bound (vs GLS3000): 0.16
B10: GLS3000 G91D (antibody, name in Kabat numbering, V domains shown)
VH: B1 VH
VL: B1 VL with A32S, G96D
notes: one-arm format as m2

ratio of amounts bound (vs GLS3000): 1.03
B11: GLS3000 G89T (antibody, name in Kabat numbering, V domains shown)
VH: B1 VH
VL: B1 VL with A32S, G94T
notes: one-arm format as m2

ratio of amounts bound (vs GLS3000): 1.33
B12: GLS3000 F55K (antibody, name in Kabat numbering, V domains shown)
VH: B1 VH
VL: B1 VL with A32S, F60K
notes: one-arm format as m2

ratio of amounts bound (vs GLS3000): 0.98
B13: GLS3000 F55N (antibody, name in Kabat numbering, V domains shown)
VH: B1 VH
VL: B1 VL with A32S, F60N
notes: one-arm format as m2

ratio of amounts bound (vs GLS3000): 1.07
B14: GLS3000 G89I (antibody, name in Kabat numbering, V domains shown)
VH: B1 VH
VL: B1 VL with A32S, G94I
notes: one-arm format as m2

ratio of amounts bound (vs GLS3000): 0.92
B15: GLS3000 F55Y (antibody, name in Kabat numbering, V domains shown)
VH: B1 VH
VL: B1 VL with A32S, F60Y
notes: one-arm format as m2

ratio of amounts bound (vs GLS3000): 0.5
B16: GLS3000 G89W (antibody, name in Kabat numbering, V domains shown)
VH: B1 VH
VL: B1 VL with A32S, G94W
notes: one-arm format as m2

ratio of amounts bound (vs GLS3000): 0.4
B17: GLS3000 G89K (antibody, name in Kabat numbering, V domains shown)
VH: B1 VH
VL: B1 VL with A32S, G94K
notes: one-arm format as m2

ratio of amounts bound (vs GLS3000): 0.7
B18: GLS3000 G89H (antibody, name in Kabat numbering, V domains shown)
VH: B1 VH
VL: B1 VL with A32S, G94H
notes: one-arm format as m2

ratio of amounts bound (vs GLS3000): 0.27
B19: GLS3000 G91P (antibody, name in Kabat numbering, V domains shown)
VH: B1 VH
VL: B1 VL with A32S, G96P
notes: one-arm format as m2

ratio of amounts bound (vs GLS3000): 0.8
B20: GLS3000 G89N (antibody, name in Kabat numbering, V domains shown)
VH: B1 VH
VL: B1 VL with A32S, G94N
notes: one-arm format as m2

ratio of amounts bound (vs GLS3000): 0.38
B21: GLS3000 G89Q (antibody, name in Kabat numbering, V domains shown)
VH: B1 VH
VL: B1 VL with A32S, G94Q
notes: one-arm format as m2

ratio of amounts bound (vs GLS3000): 0.69
B22: GLS3000 F55W (antibody, name in Kabat numbering, V domains shown)
VH: B1 VH
VL: B1 VL with A32S, F60W
notes: one-arm format as m2

ratio of amounts bound (vs GLS3000): 1.63
B23: GLS3000 G89V (antibody, name in Kabat numbering, V domains shown)
VH: B1 VH
VL: B1 VL with A32S, G94V
notes: one-arm format as m2

ratio of amounts bound (vs GLS3000): 0.76
B24: GLS3000 F55L (antibody, name in Kabat numbering, V domains shown)
VH: B1 VH
VL: B1 VL with A32S, F60L
notes: one-arm format as m2

ratio of amounts bound (vs GLS3000): 1.13
B25: GLS3000 F55A (antibody, name in Kabat numbering, V domains shown)
VH: B1 VH
VL: B1 VL with A32S, F60A
notes: one-arm format as m2

ratio of amounts bound (vs GLS3000): 0.8
B26: GLS3000 F55M (antibody, name in Kabat numbering, V domains shown)
VH: B1 VH
VL: B1 VL with A32S, F60M
notes: one-arm format as m2

ratio of amounts bound (vs GLS3000): 0.26
B27: GLS3000 G91T (antibody, name in Kabat numbering, V domains shown)
VH: B1 VH
VL: B1 VL with A32S, G96T
notes: one-arm format as m2

ratio of amounts bound (vs GLS3000): 0.69
B28: GLS3000 F55S (antibody, name in Kabat numbering, V domains shown)
VH: B1 VH
VL: B1 VL with A32S, F60S
notes: one-arm format as m2

ratio of amounts bound (vs GLS3000): 0.26
B29: GLS3000 G91S (antibody, name in Kabat numbering, V domains shown)
VH: B1 VH
VL: B1 VL with A32S, G96S
notes: one-arm format as m2

ratio of amounts bound (vs GLS3000): 1.31
B30: GLS3000 F55R (antibody, name in Kabat numbering, V domains shown)
VH: B1 VH
VL: B1 VL with A32S, F60R
notes: one-arm format as m2

ratio of amounts bound (vs GLS3000): 1.13
B31: GLS3000 G89A (antibody, name in Kabat numbering, V domains shown)
VH: B1 VH
VL: B1 VL with A32S, G94A
notes: one-arm format as m2

ratio of amounts bound (vs GLS3000): 0.27
B32: GLS3000 G91A (antibody, name in Kabat numbering, V domains shown)
VH: B1 VH
VL: B1 VL with A32S, G96A
notes: one-arm format as m2

ratio of amounts bound (vs GLS3000): 1.19
B33: GLS3000 G89Y (antibody, name in Kabat numbering, V domains shown)
VH: B1 VH
VL: B1 VL with A32S, G94Y
notes: one-arm format as m2

ratio of amounts bound (vs GLS3000): 1.31
B34: GLS3000 F55G (antibody, name in Kabat numbering, V domains shown)
VH: B1 VH
VL: B1 VL with A32S, F60G
notes: one-arm format as m2

ratio of amounts bound (vs GLS3000): 1.09
B35: GLS3000 G89F (antibody, name in Kabat numbering, V domains shown)
VH: B1 VH
VL: B1 VL with A32S, G94F
notes: one-arm format as m2

ratio of amounts bound (vs GLS3000): 0.94
B36: GLS3000 G89L (antibody, name in Kabat numbering, V domains shown)
VH: B1 VH
VL: B1 VL with A32S, G94L
notes: one-arm format as m2

ratio of amounts bound (vs GLS3000): 0.91
B37: GLS3000 F55Q (antibody, name in Kabat numbering, V domains shown)
VH: B1 VH
VL: B1 VL with A32S, F60Q
notes: one-arm format as m2

ratio of amounts bound (vs GLS3000): 0.33
B38: GLS3000 G89D (antibody, name in Kabat numbering, V domains shown)
VH: B1 VH
VL: B1 VL with A32S, G94D
notes: one-arm format as m2

ratio of amounts bound (vs GLS3000): 0.19
B39: GLS3000 G89R (antibody, name in Kabat numbering, V domains shown)
VH: B1 VH
VL: B1 VL with A32S, G94R
notes: one-arm format as m2

ratio of amounts bound (vs GLS3000): 0.22
B40: GLS3000 H27dD (antibody, name in Kabat numbering, V domains shown)
VH: B1 VH
VL: B1 VL with H31D, A32S
notes: one-arm format as m2

ratio of amounts bound (vs GLS3000): 0.52
B41: GLS3000 G89M (antibody, name in Kabat numbering, V domains shown)
VH: B1 VH
VL: B1 VL with A32S, G94M
notes: one-arm format as m2

ratio of amounts bound (vs GLS3000): 0.72
B42: GLS3000 F55E (antibody, name in Kabat numbering, V domains shown)
VH: B1 VH
VL: B1 VL with A32S, F60E
notes: one-arm format as m2

ratio of amounts bound (vs GLS3000): 0.16
B43: GLS3000 G91E (antibody, name in Kabat numbering, V domains shown)
VH: B1 VH
VL: B1 VL with A32S, G96E
notes: one-arm format as m2

ratio of amounts bound (vs GLS3000): 0.35
B44: GLS3000 G89P (antibody, name in Kabat numbering, V domains shown)
VH: B1 VH
VL: B1 VL with A32S, G94P
notes: one-arm format as m2

ratio of amounts bound (vs GLS3000): 0.17
B45: GLS3000 G91Y (antibody, name in Kabat numbering, V domains shown)
VH: B1 VH
VL: B1 VL with A32S, G96Y
notes: one-arm format as m2

ratio of amounts bound (vs GLS3000): 1.16
B46: GLS3000 F55P (antibody, name in Kabat numbering, V domains shown)
VH: B1 VH
VL: B1 VL with A32S, F60P
notes: one-arm format as m2
